# Target: T1, HLA-A2 (Homo sapiens, UniProt P04439, D140Y/D185E/D98H/E176V/E277Q/G131W/G231S/I119V/I121R/I166T/I218V/L300P/L318F/N151K/N90K/P208A/P217A/Q86G/Q94H/R138H/R169H/T345S)
# T1 construct: pulsing TAP deficient T2 cells that expressed the corresponding HLA class I molecule (T2-A2, T2-A3, or T2-A24 cells); endogenous in cells; host or cells: human T2 cells (TAP-deficient B/T lymphoblast hybrid), called T2-A2
# Assay: T2 peptide/MHC binding assay, T2-A2 cells, W6/32 staining, flow cytometry
# Conditions: T2-A2 cells pulsed with peptide, HLA class I antibody W6/32, flow cytometry
sequence,measurement,value
EIDESLIFY (listed as Homo sapiens),detection of HLA-A2 on the cell surface of peptide-pulsed T2-A2 cells,do not stain

# From patent US11285197B2, “Mesothelin vaccines and model systems” (priority 2002, dated 2022)
